Laboratory results from patent US20230026666A1 (CATHOLIC UNIVERSITY OF AMERICA, published 2023).

How the values were obtained:
[1] = target: T1, CD4 receptor on cells (human, UniProt P01730 26-458); experiment: cell binding assay, protein coated, A3.01, A2.01 and Tzmbl cells added, CellTiterGlo detection
T1 construct: whole, on cells; also called CD4 receptor on T cells; CD4+ T cells (A3.01, A3R5, J-Lat 10.6, human PBMC)

[2] = target: T2, soluble human CD4 receptor with full-length extracellular domain (amino acids 1-370) (human, UniProt P01730 26-396); experiment: ELISA, 0.1 ug protein coated per well, soluble CD4 added, detected with anti-CD4 antibody Sim.2
T2 construct: extracellular domain; also called soluble CD4; recombinant soluble CD4 (NIH AIDS Reagent program, 4615)

B1: Hoc (highly antigenic outer capsid protein), N-terminal hexa-histidine tag (other)
chain: HHHHHHMTFTVDITPKTPTGVIDETKQFTATPSGQTGGGTITYAWSVDNVPQDGAEATFSYVLKGPAGQKTIKVVATNTLSEGGPETAEATTTITVKNKTQTTTLAVTPASPAAGVIGTPVQFTAALASQPDGASATYQWYVDDSQVGGETNSTFSYTPTTSGVKRIKCVAQVTATDYDALSVTSNEVSLTVNKKTMNPQVTLTPPSINVQQDASATFTANVTGAPEEAQITYSWKKDSSPVEGSTNVYTVDTSSVGSQTIEVTATVTAADYNPVTVTKTGNVTVTAKVAPEPEGELPYVHPLPHRSSAYIWCGWWVMDEIQKMTEEGKDWKTDDPDSKYYLHRYTLQKMMKDYPEVDVQESRNGYIIHKTALETGIIYTYP
notes: Negative control
- binding result [1]: no binding (tested: 15 pmoles per well)
- binding result [2]: no binding
